# Measurements from US6989364B1, “Methods for treating cardiac hypertrophy by administering IFN-γ” (Genentech, Inc., priority 1998, dated 2006).
# Tests used:
# [1] = system: adult rat cardiac myocytes; assay: Inhibition of PGF2α-induced spreading response of adult myocytes; assay type: cell-based
# Method: Myocytes were pre-incubated with saline vehicle or IFN-γ (500 U/ml) on day of isolation. A second addition of vehicle or IFN-γ was performed 24h after isolation, along with the addition of either vehicle or PGF2α (10^−7 M). After an additional 72 hr incubation, cells were fixed in glutaraldehyde, stained with eosin Y and viewed by fluorescence microscopy. A, B, C Cardiac myocytes after 4 days in culture: control, PGF2α, and PGF2α+IFN-γ, respectively. D, E, F Histographs showing maximum breadth of rod shaped cardiac myocytes versus percent frequency of breadth occurrence. The maximum breadth of rod-shaped cells was determined by fluorescence microscopy and imaging software. At least 200 rod shaped cells from a single experiment were examined per group.
# Myocytes were pre-incubated with saline vehicle or IFN-γ on day of isolation. A second amount of IFN-γ was added 24 hr after isolation, along with the addition of either vehicle or PGF2α (10^−7 M). After an additional 72 hr incubation, cells were fixed in glutaraldehyde, stained with eosin Y and viewed under fluorescence. Quantitation of myocyte morphology: A control, B PGF2α, C PGF2α+IFN-γ (25 U/ml), D PGF2α+IFN-γ (100 U/ml), E PGF2α+IFN-γ (500 U/ml). Histographs showing maximum breadth of rod shaped cardiac myocytes versus percent frequency of breadth occurrence. The maximum breadth of rod-shaped cells was determined by fluorescence microscopy and imaging software. At least 200 rod shaped cells from a single experiment were examined per group.
# In this assay, ventricular myocytes are isolated from a single (male Sprague-Dawley) rat, essentially following a modification of the procedure described in detail by Piper et al., “Adult ventricular rat heart muscle cells.” In: Cell Culture Techniques in Heart and Vessel Research, H. M. Piper, ed., Berlin: Spinger-Verlag, 1990, pp. 36–60. This procedure permits the isolation of adult ventricular myocytes and the long-term culture of these cells in the rod-shaped phenotype. […] Piper et al., supra; Lai et al., Am J. Physiol. 1996; 271 (Heart Circ. Phvsiol. 40):H2197–H2208. The inhibition of myocyte spreading induced by PGF2α, or PGF2α analogs, (e.g. fluprostenol) and phenylephrine by various potential inhibitors of cardiac hypertrophy is then tested. A detailed protocol is described in the examples that follow.
# Adult myocyte cultures The procedure used for the isolation of ventricular myocytes from adult rats was a modification of a procedure described by Piper et al., supra, and is detailed in Lai et al., supra. For each myocyte preparation, one male Sprague-Dawley rat weighing about 250 g was anesthetized with pentobarbital sodium, and the heart was removed. Extraneous tissue was trimmed from the heart, and it was mounted onto a Langendorff system that was temperature controlled at 37° C. The heart was perfused with about 40 ml of Krebs buffer (110 mM NaCl, 2.6 mM KCl, 1.2 mM KH2PO4, 1.2 mM MgSO4.7H2O, 25 mM NaHCO3 and 11 mM glucose). A solution containing 30 mg of collagenase and 12.5 μl of 100 mM CaCl2 in 50 ml of Krebs buffer was then recirculated through the heart for 30 minutes. The heart was removed from the Langendorff apparatus, and the atria and connective tissues were removed. The ventricles were cut into 2 mm cubes with dissecting scissors, and further digested in a fresh collagenase solution (30 mg collagenase and 400 mg BSA dissolved in Krebs buffer with 12.5 μl of 100 mM CaCl2) for five minutes at 37° C. During the digestion, the tissue suspension was gently band shaken one time per minute. After the digestion, the supernatant was removed and saved, and the remaining tissue was further digested in fresh collagenase solution for an additional five minutes.
# [2] = system: rats with pressure overload; assay: Pressure overload (abdominal aortic banding) cardiac hypertrophy: body and organ weights; assay type: in vivo, rat
# Method: For in vivo testing it is common to induce pressure-overload cardiac hypertrophy by constriction of the abdominal aorta of test animals. In a typical protocol rats (e.g. male Wistar or Sprague-Dawley) are treated under anesthesia, and the abdominal aorta of each rat is narrowed down just below the diaphragm. Beznak M., Can. J. Biochem. Physiol. 33, 985–94 (1955). The aorta is exposed through a surgical incision, and a blunted needle is placed next to the vessel. The aorta is constricted with a ligature of wool thread around the needle, which is immediately removed and which reduces the lumen of the aorta to the diameter of the needle. This approach is described, for example, in Rossi et al., Am. Heart J. 124, 700–709 (1992) and O'Rourke and Reibel, P.S.E.M.B. 200, 95–100 (1992). A detailed description of the protocol used by the present inventors is disclosed in the examples hereinbelow.
# Animal model of pressure overload The induction of pressure overload by partial ligation of the abdominal aorta in rats was as described previously. Kimura et al., Am. J. Physiol. 1989:256 (Heart Circ. Physiol. 25):H1006–H1-11; Batra et al., J. Cardiovasc. Pharmacol. 17(suppl. 2), S151–S153 (1991). In brief, rats were anesthesized with ketamine/xylazine as described above. A 3 cm midline incision was made in the abdominal wall. The abdominal aorta between the diaphragm and the renal artery was exposed and looped with 5–0 silk suture. The suture was tightened around a gauge 23 needle, and then the needle was withdrawn. Sham animals received the surgery without tightening the suture.
# Experimental protocol in rats with pressure overload The rats with aortic banding randomly received subcutaneous injection of IFN-γ at 0.08 mg/k twice a day for one day before surgery and for 14 days after surgery. Sham animals were not treated. Thirteen days after treatment, a catheter was implanted into the right carotid artery under anesthesia as indicated above. One day after implantation, arterial pressure and HR were measured in conscious rats. The heart and other organs including the liver, kidney, and spleen were removed, weighed, and fixed in 10% buffered formalin for pathological studies. The left ventricle was quickly dissected and frozen with liquid nitrogen in some animals and stored at −80° C. for assessment of gene expression.
# Statistical analyisis Results are expressed as mean±SEM. One way analysis of variance (ANOVA) was performed to assess differences in parameters between groups. Significant differences were then subjected to post hoc analysis using Newman-Keuls method; P<0.05 was considered significant.
# [3] = pressure overload, IFN-γ 0.08 mg/kg s.c. twice a day, 1 day before and 14 days after surgery, mean ± SEM
substance,measurement,setting,value
"IFN-γ: recombinant mouse IFN-γ (Genentech, Inc., South San Francisco, Calif., or Genzyme, Cambridge, Mass.)",Dose dependence of the inhibitory effect on PGF2α-induced myocyte spreading,"[1]; IFN-γ 25, 100, 500 U/ml, PGF2α 10^−7 M",dose dependent
same,Inhibition of PGF2α-induced myocyte spreading (maximum cell breadth of rod shaped cells),"[1]; IFN-γ 500 U/ml, PGF2α 10^−7 M, 72 hr, P<0.001 vs PGF2α",significantly inhibited their response to PGF2α
same,Effect of the substance alone on morphology of the cells,"[1]; IFN-γ alone, 500 U/ml, no PGF2α",had no observable effect on the morphology of the cells
same,"Effect on cardiac hypertrophy induced by pressure overload (heart, atrial, ventricular, left ventricular weights and ratios to BW)","[2]; aortic banding, IFN-γ vs vehicle, Table 2, FIGS. 7 and 8",significantly attenuated cardiac hypertrophy
same,"BWO, basal levels of body weight","[2]; pressure overload rats, before treatment, mean ± SEM",279.0 ± 1.3 g
same,"AW, atrial weight",[2]; [3],.046 ± .003 g
same,"AW/BW, atrial weight to body weight",[2]; [3],.129 ± .007 g/kg
same,"BW, body weight post treatment",[2]; [3],355.5 ± 5.2 g
same,"KW, kidney weight",[2]; [3],1.349 ± .071 g
same,KWBW,[2]; [3],3.776 ± .071 g/kg
same,"LW, liver weight",[2]; [3],13.96 ± .47 g
same,"LW/BW, liver weight to body weight",[2]; [3],38.94 ± .92 g/kg
same,"SW, spleen weight",[2]; [3],1.170 ± .053 g
same,"SW/BW, spleen weight to body weight",[2]; [3],3.261 ± .121 g/kg
same,"ΔBW, BW-BWO",[2]; [3],76.5 ± 4.7 g
